In PMC4700190:

Key:
[1] = target: CynD T66C (Bacillus pumilus); assay: SEC; Superdex 200 10/300 GL, 0.1 M MOPS pH 7.7, 0.5 ml/min; His-tag purified protein; column calibrated with a marker kit, and with wild-type B. pumilus CynD (18-mer) and P. stutzeri CynD (14-mer)
[2] = target: CynD F69C (Bacillus pumilus); assay: as above
[3] = target: CynD F59C (Bacillus pumilus); assay: as above
[4] = target: CynD M223C (Bacillus pumilus); assay: as above
[5] = target: CynD from Pseudomonas stutzeri (Pseudomonas stutzeri); assay: as above
[6] = target: CynD E235C (Bacillus pumilus); assay: as above
[7] = target: CynD H71C (Bacillus pumilus); assay: as above
[8] = target: CynD F234C (Bacillus pumilus); assay: as above
[9] = target: CynD P63C (Bacillus pumilus); assay: as above
[10] = target: CynD L226C (Bacillus pumilus); assay: as above
[11] = target: CynD H62C (Bacillus pumilus); assay: as above
[12] = target: CynD R67C (Bacillus pumilus)
[13] = target: CynD Y233C (Bacillus pumilus); assay: SEC; Superdex 200 10/300 GL, 0.1 M MOPS pH 7.7, 0.5 ml/min; His-tag purified protein; column calibrated with a marker kit, and with wild-type B. pumilus CynD (18-mer) and P. stutzeri CynD (14-mer)
[14] = target: CynD D232C (Bacillus pumilus); assay: as above
[15] = target: CynD K68C (Bacillus pumilus); assay: as above
[16] = target: CynD W56C (Bacillus pumilus); assay: as above
[17] = target: CynD Q230C (Bacillus pumilus); assay: as above
[18] = target: CynD C225A (Bacillus pumilus); assay: as above
[19] = target: CynD E72C (Bacillus pumilus); assay: as above
[20] = target: CynD Y70C (Bacillus pumilus); assay: as above
[21] = target: CynD E64C (Bacillus pumilus); assay: as above
[22] = target: CynD T227C (Bacillus pumilus); assay: as above
[23] = target: CynD R231C (Bacillus pumilus); assay: as above
[24] = target: CynD I224C (Bacillus pumilus); assay: as above
[25] = target: CynD F57C (Bacillus pumilus); assay: as above
[26] = target: CynD G61C (Bacillus pumilus); assay: as above
[27] = target: CynD E222C (Bacillus pumilus); assay: as above
[28] = target: CynD E229C (Bacillus pumilus); assay: as above
[29] = target: CynD I60C (Bacillus pumilus); assay: as above
[30] = target: CynD A58C (Bacillus pumilus); assay: as above
[31] = target: cyanide dihydratase from Bacillus pumilus (CynD), wild type (Bacillus pumilus); assay: as above
[32] = target: CynD P55C (Bacillus pumilus); assay: as above
[33] = target: CynD Y65C (Bacillus pumilus); assay: as above

CynD T66C (enzyme)
stoichiometry N [1]: 16 subunits

CynD F69C (enzyme)
stoichiometry N [2]: 16 subunits

CynD F59C (enzyme)
stoichiometry N [3]: 18 subunits

CynD M223C (enzyme)
stoichiometry N [4]: 18 subunits

CynD from Pseudomonas stutzeri (enzyme)
stoichiometry N [5]: 14 subunits

CynD E235C (enzyme)
stoichiometry N [6]: 18 subunits

CynD H71C (enzyme)
stoichiometry N [7]: 16 subunits

CynD F234C (enzyme)
stoichiometry N [8]: 16 subunits

CynD P63C (enzyme)
stoichiometry N [9]: 18 subunits

CynD L226C (enzyme)
stoichiometry N [10]: 18 subunits

CynD H62C (enzyme)
stoichiometry N [11]: 18 subunits

CynD R67C (enzyme)
activity of the purified protein relative to wild type, picric acid cyanide assay [12]: < 10%

CynD Y233C (enzyme)
stoichiometry N [13]: 16 subunits

CynD D232C (enzyme)
stoichiometry N [14]: 18 subunits

CynD K68C (enzyme)
stoichiometry N [15]: 18 subunits

CynD W56C (enzyme)
stoichiometry N [16]: 16 subunits

CynD Q230C (enzyme)
stoichiometry N [17]: 18 subunits

CynD C225A (enzyme)
stoichiometry N [18]: 18 subunits

CynD E72C (enzyme)
stoichiometry N [19]: 18 subunits

CynD Y70C (enzyme)
stoichiometry N [20]: 16 subunits

CynD E64C (enzyme)
stoichiometry N [21]: 16 subunits

CynD T227C (enzyme)
stoichiometry N [22]: 18 subunits

CynD R231C (enzyme)
stoichiometry N [23]: 18 subunits

CynD I224C (enzyme)
stoichiometry N [24]: 18 subunits

CynD F57C (enzyme)
stoichiometry N [25]: 14 subunits

CynD G61C (enzyme)
stoichiometry N [26]: 14 subunits

CynD E222C (enzyme)
stoichiometry N [27]: 18 subunits

CynD E229C (enzyme)
stoichiometry N [28]: 18 subunits

CynD I60C (enzyme)
stoichiometry N [29]: 18 subunits

CynD A58C (enzyme)
stoichiometry N [30]: 18 subunits

cyanide dihydratase from Bacillus pumilus (CynD), wild type (enzyme)
stoichiometry N [31]: 18 subunits

CynD P55C (enzyme)
stoichiometry N [32]: 18 subunits

CynD Y65C (enzyme)
stoichiometry N [33]: 18 subunits
